Drawing on patent publication US20200147199A1 (published 2020), this text covers EC50 for 18 molecules.

In the experiment the target is ZIKV E Domain III (ZEDIII), polyhistidine-AviTag, produced in HEK-293-6E cells. The experiment in a line: ELISA. In general terms: In an ELISA, binding on a coated surface is turned into a signal by an enzyme label.

One may read the EC50 as the concentration at which the effect is half-maximal.

B1: Z031 (BRA112_46) (antibody, V domains shown)
VH: EVQLLESGGGLVQPGGSLRLSCVASGFTFGSYGMAWVRQAPGKGLEWISSISSIDPSTYYADSVKGRFTVSRDNSENTLYLHMSSLKVEDTAVYFCAKDRLNGGFGELFASWGQGTLVTVSS
VL: DIQMTQSPSTLSASVGDSVTITCRASQSISSWLAWYQQKPGKAPKFLIHKASSLESGIPSRFSGSGSGTEFTLTINNLQPDDFATYYCQHYHSYPWTFGQGTKVEIK
Take B1: a half-maximal response (EC50) required 0.0341 µg/mL.

B2: Z024 (antibody, V domains shown)
VH: EVQLVQSGAEVRKPGESLRISCKTSGYTFTSHWVAWVRQMPGKGLEWMGIIYPGDSDTRYSPSFQGQISISADKSINTAYLQWSSLKASDTGIYYCARHDGRGYCSPTRCFFSGMDVWGQGTTVTVSS
VL: DIQLTQSPSSLSASVGDRVTITCRASQSISNYLNWYQQKPGKAPNLLIYAASSLQSGVPSRFSGSGSGTDFTLTISSLQPEDYAIYYCQQTDRTPLTFGQGTKVEIK
As to B2, the half-maximal effective concentration (EC50) is above 4 µg/mL.

B3: Z014 (antibody, V domains shown)
VH: EVQLLESGGDLVQPGGSLRLSCAASGFTFSSYGMSWVRQAPGKGLEWVSSISGFDPSTYYADSVRGRFTIARDNSKNTLYLQMKSLRVEDTAIYYCAKDRLVRGFGEVLDSWGQGTLVTVSS
VL: DIQMTQSPSSLSASVGDRVTITCRASQGISNYLAWYQQKPREVPKLLIYAASTLHSGVPSRFSGSGSGTDFTLTISGLQPEDVATYYCQKYNSVPWTFGQGTKVEIK
B3 came in with an EC50 of 0.106 µg/mL.

B4: Z039 (antibody, V domains shown)
VH: EVQLLESGGGLVQPGGSLRLSCAASGYIFDNYAMSWVRQAPGKGLEWVSYINGGGYGTDYADSVKGRFTISRDNSKRILYLQMNSLRVGDTAVYYCAKSPYVGGYGLPGDSWGQGTLVTVSS
VL: EIVLTQSPGTLSLSPGERATLSCRASQTIFFNYLAWYQKKPGQAPRLLVHGASTRATGIPDRFSGSGSGTDFTLTINSLDPEDFAVYYCQQYGDSPPTFGGGTKVEIK
For B4, the EC50 amounted to 0.0885 µg/mL. The EC50 values of the last two molecules are within 1.5-fold of each other.

B5: Z041 (antibody, V domains shown)
VH: QVQLVQSGAEVKKPGSSVRLSCKASGGSYSTYAISWVRQAPGQGLEWMGRIIPSLGKTHLAQKFQGRVTFTADESTTTVYMILSSLKSEDTALYYCATPDWQYSSAYSLDHWGQGTLVTVSS
VL: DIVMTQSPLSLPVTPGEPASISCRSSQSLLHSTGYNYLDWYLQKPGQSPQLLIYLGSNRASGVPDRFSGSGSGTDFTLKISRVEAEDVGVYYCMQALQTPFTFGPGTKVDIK
For the molecule B5, the response was half-maximal at 0.218 µg/mL (EC50).

B6: Z006 (MEX105_42) (antibody, V domains shown)
VH: EVQLLESGGGLVQPGGSLRLSCAASGFTFKNYAMAWVRQAPGKGLEWVSLLYNSEESTYYADSVKGRFTISRDNSKNTLFLQMNRLRVEDTAVYFCVRDRSNGWSSINLWGRGTLVTVSS
VL: DIQMTQSPSTLSASVGDRVTMTCRASQTISGWLAWYQQKPGKAPKLLIYQASRLESGIPSRFSGSGSGTEFTLTISSLQPDDVATYYCQQYSTFWTFGLGTKVEIK
In turn, B6 came in with an EC50 of 0.0351 µg/mL. Compared with the last molecule, the EC50 is about 6.2-fold lower.

B7: Z010 (MEX105_88) (antibody, V domains shown)
VH: EVQLLESGGGLVQPGGSLRLSCAASGFTFSNYAMAWVRQAPGKGLEWVSLIYSGDDSTYYADFVKGRFTISRHNSKNTLSLQMNSLRAEDTAIYYCVKDRGTGWSSIVHWGQGTLVTVSS
VL: DIQMTQSPSTLSASVGDRVTITCRASQTISNWLAWYQQKPGKAPKLLIYQASSLESGVPSRFSGSGSGTEFTLTISSLQPDDFATYYCQQYSTYWTFGQGTKVEIK
For the molecule B7, the EC50 was above 0.4 µg/mL.

B8: Z038 (BRA12_2) (antibody, V domains shown)
VH: EVQLLESGGGLVQPGGSLRLSCEASGFTFSNYAMNWVRQAPGKGLEWVSTLGATDNSGDSTYYVESAKGRFTISRDNSKNTLYLQMNSLRVEDTAVYFCAKDRTGNIGAGTGYFDKWGQGTLVTVSS
VL: DIQMTQSPSTLSASVGDRVTITCRASHRISGWLAWYQQKPGKAPKLLIYQASGLESGVPSRFSGSGYGTEFTLTISSLQADDFATYYCQQYNNYPWTFGQGTKVEIK
B8 gave an EC50 of 0.0581 µg/mL.

B9: Z012 (antibody, V domains shown)
VH: QVQLVQSGAEVKKSGASVKVSCKASGYSFTTNYIHWVRQAPGQGPEWMGIINPRGGSTTYAQKFQGRVLMTSDTSTSTVYMELSSLRSEDRAVYYCARGKNHQTTVAVLSWYYGMDVWGQGTTVTVSS
VL: DIQMTQSPSSVSASVGDRVTITCRASQGISSWLAWYQQKPGKAPKLLISAASSLQSGVPSRFSGSGSGTDFTLTISNLQPEDFATYFCQQANSFPYTFGQGTKLEIK
As to B9, the EC50 stood at 0.2 µg/mL.

B10: Z037 (antibody, V domains shown)
VH: QVQLQESGPGLVKPSETLSLTCSVSGYFISSGHYWGWIRQSPGKGLEWIASIYQSGSKFQTGNTYYNPSLESRVTISMDTSKNQFSLKLSSVTAADTAVYFCARDARSRSWDRTGFFGPWGQGILVTVSS
VL: EIVLTQSPGTLSLSPGERATLSCRASQSLSSSFLAWYQQKPGQSPRLLIYGTSSRDTGIPDRFSGSGSGTDFTLTISRLEPEDSAVYYCQQYGSSWGTFGQGTKLEIK
B10 had a concentration giving a half-maximal response (EC50) above 0.4 µg/mL.

B11: Z004 (MEX18_89) (antibody, V domains shown)
VH: EVQLLESGGGLVQPGGSLRLTCATSGFTFRDYAMSWVRQAPGKGLEWVSSYSGIDDSTYYADSVKGRFTISRDNSKSTLSLHMNSLRAEDSALYFCAKDRGPRGVGELFDSWGQGTLVTVSS
VL: DIQMTQSPSTLSASVGDRVTITCRASQSISKWLAWYQQKPGKAPKLLIYTTSTLKSGVPSRFSGSGSGTEFTLTISSLQPDDFATYYCQHFYSVPWTFGQGTKVEIK
B11 gave an EC50 of 0.0237 µg/mL.

B12: Z001 (MEX18_21) (antibody, V domains shown)
VH: EVQLLESGGGLVQPGGSRRLSCATSGFSFDTYAMSWLRQAPGKGLEWVSSFSGLDDSTYYADSVKGRFTISRDNSKNTLYLQMNSLRAEDTAIYYCAKDRGPRGIGELFDFWGQGTLVTVSS
VL: DIQMTQSPSTLSASVGDRVTITCRASQSISRWLAWYQQKPGKAPKLLIYKTSTLKSEVPSRFSGSGSGTEFTLTISSLQPDDFATYYCQHFHSVPWTFGQGTKVEIK
B12: the EC50 was 0.0206 µg/mL.

B13: Z028 (MEX84_p4-53) (antibody, V domains shown)
VH: EVQLLESGGGLVQPGGSLRLSCAASGFTFSAYAMSWVRQAPGKGLEWVSSINGHSDSTYFADSVKGRFTISRDNSKNTLYLQMNSLRAEDTALYYCAKDRLREGIGELFHSWGQGTLVTVSS
VL: DIQMTQSPSTLSASIGDRVTITCRASQSITPWLAWYQQKPGKAPKFLIYQTSILESGVPSRFSGSGSGTEFTLTISSLQPDDFATYYCQHYHSYPWTFGQGTKVEIK
Regarding B13, it took 0.0371 µg/mL to reach a half-maximal effect (EC50).

B14: Z021 (MEX84_p4-23) (antibody, V domains shown)
VH: QVQLQESGPGLVKPSETLSLTCTVSGGSIDTYYWSWIRQTPGKGLEWIGCFYYSVDNHFNPSLESRVTISVDTSKNQFSLKMTSMTASDTAVYYCARNQPGGRAFDYWGPGTLVTVSS
VL: EIVLTQSPATLSLSPGQRATLSCRASQSVSNYFAWYQQKPGQAPRLLIYDTSKRATGTPARFSGSGSGTDFTLTISSLEPEDFAVYYCQERNNWPLTWTFGLGTKVEIK
For the molecule B14, the EC50 came to 0.0554 µg/mL.

B15: Z035 (BRA112_71) (antibody, V domains shown)
VH: EVQLLESGGGLIQPGGSLRLSCAASGFTFSSYAMSWVRQAPGKGLEWVSGISGSGGASDNGASRYYADSVKGRFSISRDNSKNTVYLQMNSLRAEDTAVYYCAKDRLSGGFGELFQKWGQGTLVTVSS
VL: DIQMTQSPSTLAASVGDRVTITCRASQNINSWLAWYQQKPGKAPKFLIYKASTLESGAPSRFSGSGSGTEFTLTISSLQPDDFATYYCQHYYSYPYTFGQGTKVEIK
In turn, B15 showed an EC50 of 0.0284 µg/mL. Compared with the last molecule, the EC50 is about 2-fold lower.

B16: Z018 (antibody, V domains shown)
VH: QVQLVQSGPGVKKPGASVKVSCKASGYIFSDYYILWVRQAPGQGLEYMGWMNPISGFTHYAQNFQGRVTMTRDTSISTAYMELTRLASDDTAVYYCARGGRINSPLGFDPWGQGTLVTVSS
VL: EIVLTQSPATLSLSPGERATLSCRASQSISTFSLAWYQQKFGQAPRLLIYGASSRATGIPDRFSGSGSGTDFTLTISRLEPEDFAVYYCQQYVSSPLTFGGGTKVEIK
B16 had an EC50 of 0.0742 µg/mL.

B17: Z042 (antibody, V domains shown)
VH: QVQLQESGPGLVKPSETLSLSCTVSSGSISNYYWNWIRQPPGKGLEWIGYIYYSGSISYNPSLKSRVTISVDTSKNQLSLKLNSVTAADTAVYYCARGPDNRYWGQGTLVTVSS
VL: EIVMTQSPATLSVSPGERVTLSCRASQSVSYNLAWHQQKPGQAPRLLIYGASTRATGIPARFSGSGSGTEFTLTISNMQSEDFAVYYCQQYNNWPPVFTFGPGTKVDIK
B17 yielded an EC50 of 0.0586 µg/mL. This EC50 and that of the molecule before are within 1.5-fold of each other.

B18: Z043 (antibody, V domains shown)
VH: QVQLVQSGAEVKKPGASVKVSCKTSGYTFTSYYMNWVRQAPGQGLEWMGIIKPSDGSTNYAQKFQGRVTMTRDTSTSTVYMELRSLRSEDTAVYYCGRDSKGWLQLRGDIDYWGQGTLVTVSS
VL: QSALTQPASVSGSPGQSITISCAGTSSDVGNYNLVSWYQQHPGKAPKLLIYEVSKRPSGVSNRFSGSKSGNTASLTISGLQAEDEADYYCCSYAGSSTYVFGTGTEVTVL
For B18, the EC50 was found to be 0.188 µg/mL.
